{
  "source": "paper PMC3460959",
  "key": {"[1]": {"molecular_target": "Substance P (FAM-SP) (Homo sapiens), P20366", "sequence (P20366 whole entry, looked up)": "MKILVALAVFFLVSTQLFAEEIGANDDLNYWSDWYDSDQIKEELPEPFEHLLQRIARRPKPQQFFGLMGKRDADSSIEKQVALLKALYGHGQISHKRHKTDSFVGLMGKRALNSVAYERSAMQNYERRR"}, "[2]": {"molecular_target": "Substance P (FAM-SP) (Homo sapiens), P20366", "remark": "listed apart in the source"}},
  "note": "Read-outs that look alike come from different tables or passages of the source.",
  "data": [
    {"binder": "Neurokinin 1 receptor (NK1R), P25103 (protein) MDNVLPVDSDLSPNISTNTSEPNQFVQPAWQIVLWAAAYTVIVVTSVVGNVVVMWIILAHKRMRTVTNYFLVNLAFAEASMAAFNTVVNFTYAVHNEWYYGLFYCKFHNFFPIAAVFASIYSMTAVAFDRYMAIIHPLQPRLSATATKVVICVIWVLALLLAFPQGYYSTTETMPSRVVCMIEWPEHPNKIYEKVYHICVTVLIYFLPLLVIGYAYTVVGITLWASEIPGDSSDRYHEQVSAKRKVVKMMIVVVCTFAICWLPFHIFFLLPYINPDLYLKKFIQQVYLAIMWLAMSSTMYNPIIYCCLNDRFRLGFKHAFRCCPFISAGDYEGLEMKSTRYLQTQGSVYKVSRLETTISTVVGAHEEEPEDGPKATPSSLDLTSNCSSRSDSKTMTESFSFSSNVLS", "values": [
      {"measurement": "Kd", "setting": "[1]", "result": 83, "unit": "nM"},
      {"measurement": "Kd", "setting": "[2]", "result": 34, "unit": "nM"}
    ]}
  ]
}
